Data from patent publication US20230099149A1 (INNATE PHARMA, published 2023).

B1: enfortumab (VH and VL of SEQ ID NOS: 3 and 4 as human IgG1 isotype) (antibody, V domains shown)
VH: EVQLVESGGGLVQPGGSLRLSCAASGFTFSSYNMNWVRQAPGKGLEWVSYISSSSSTIYYADSVKGRFTISRDNAKNSLSLQMNSLRDEDTAVYYCARAYYYGMDVWGQGTTVTVSS
VL: DIQMTQSPSSVSASVGDRVTITCRASQGISGWLAWYQQKPGKAPKFLIYAASTLQSGVPSRFSGSGSGTDFTLTISSLQPEDFATYYCQQANSFPPTFGGGTKVEIKR
notes: also called mAbA; ASG-22ME
B2: N4 ADC1: anti-Nectin-4 antibody (VH and VL of SEQ ID NOS: 9 and 10, human IgG1) conjugated to a linker-camptothecin analogue (antibody, V domains shown)
VH: QVQLKQSGPGLVQPSQSLSITCTVSGFSLTNYGVHWVRQSPGKGLEWLGVIWSGGSTDYNAAFISRLSISKDTSKSQVFFKMNSLQADDTAIYYCARELIHAMDNWGQGTSVTVSS
VL: DIQMTQSPASLSVSVGETVTITCRASENIYSNLAWYQQKQGNSPQLLVFAATNLADGVPSRFSGSGSGTQYSLKINSLQSEDFGTYYCQHFWGTPTFGGGTKLEIK
modifications: linker-camptothecin analogue conjugated stochastically via cysteine residues after partial reduction of interchain disulfide; average drug:antibody ratio of about 8
B3: N4 ADC2: anti-Nectin-4 antibody (VH and VL of SEQ ID NOS: 9 and 10, human IgG1) conjugated to a SN-38 containing linker (antibody, V domains shown)
VH: B2 VH
VL: B2 VL
modifications: SN-38 containing linker conjugated via cysteine residues after partial reduction of interchain disulfide
B4: N41 (VH and VL of SEQ ID NOS: 9 and 10 as human IgG1 isotype) (antibody, V domains shown)
VH: B2 VH
VL: B2 VL
notes: also called mAbC

Tests used:
[1] = biological target: T1, modified Nectin-4 having the Ig-like C2 type 1 and the Ig-like C2 type 2 domains and lacking the Ig-like V … (human, UniProt Q96NY8 148-510); assay: flow cytometry on CHO cells expressing Nectin4-C1C2-V5
T1 construct: also called C1C2 construct
T1 sequence: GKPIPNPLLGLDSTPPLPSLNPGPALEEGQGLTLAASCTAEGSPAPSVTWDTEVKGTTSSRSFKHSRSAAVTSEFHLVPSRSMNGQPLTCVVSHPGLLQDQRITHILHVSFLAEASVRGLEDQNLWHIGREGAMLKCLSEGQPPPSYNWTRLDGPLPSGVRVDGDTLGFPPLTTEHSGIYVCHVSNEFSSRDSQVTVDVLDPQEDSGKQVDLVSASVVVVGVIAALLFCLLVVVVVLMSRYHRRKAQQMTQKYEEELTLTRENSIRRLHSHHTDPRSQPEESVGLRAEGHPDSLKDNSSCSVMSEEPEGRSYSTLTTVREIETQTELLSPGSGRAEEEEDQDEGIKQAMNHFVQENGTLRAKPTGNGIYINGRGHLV

[2] = biological target: T2, human Nectin-4 at the surface of SUM185 and SUM190 human breast cancer tumor cells (human, UniProt Q96NY8 32-510); assay: cell-based or functional assay
T2 sequence: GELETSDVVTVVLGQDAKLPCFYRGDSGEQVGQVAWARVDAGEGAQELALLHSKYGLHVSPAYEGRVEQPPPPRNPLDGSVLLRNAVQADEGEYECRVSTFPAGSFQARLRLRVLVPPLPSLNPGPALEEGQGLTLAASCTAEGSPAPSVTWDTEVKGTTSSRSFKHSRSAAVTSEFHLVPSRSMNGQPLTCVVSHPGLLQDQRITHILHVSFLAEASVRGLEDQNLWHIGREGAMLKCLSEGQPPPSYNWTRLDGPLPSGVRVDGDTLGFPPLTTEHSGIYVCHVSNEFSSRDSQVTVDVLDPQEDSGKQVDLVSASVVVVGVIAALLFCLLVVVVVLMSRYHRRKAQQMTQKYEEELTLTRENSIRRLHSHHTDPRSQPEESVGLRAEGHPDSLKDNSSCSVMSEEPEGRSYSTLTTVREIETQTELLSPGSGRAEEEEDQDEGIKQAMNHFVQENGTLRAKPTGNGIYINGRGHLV

[3] = biological target: T3, wild-type human Nectin-4 protein expressed on CHO cells (huNectin4 CI.3C8 cell line) (human, UniProt Q96NY8 32-510); assay: flow cytometry on CHO cells expressing wild-type human Nectin-4
T3 construct: also called whole Nectin-4 protein; wild type Nectin-4
T3 sequence: T2 sequence

Binder | binding result [1] | IC50 of cell death, SUM185 cells, Cell Titer Glo viability at day 6 [2] [nM] | IC50 of cell death, SUM190 cells, Cell Titer Glo viability at day 6 [2] [nM] | binding result [3]
B1 | no binding |  |  | 
B2 |  | 0.05 | 0.1 | 
B3 |  |  | 0.4 | 
B4 | no binding |  |  | binds
